Where a chain is given by its changes, count along the chain named. Names and notes keep the numbering of the source. Values joined by “and” are separate entries in the source; they are usually repeats but may differ in a detail not shown here. Equal values may be shown once. One block for each binder: values may come before it.
Key:
[1] = target: T1, human IL-11 (human, UniProt P20809 22-199); test: cell-based or functional assay
T1 sequence: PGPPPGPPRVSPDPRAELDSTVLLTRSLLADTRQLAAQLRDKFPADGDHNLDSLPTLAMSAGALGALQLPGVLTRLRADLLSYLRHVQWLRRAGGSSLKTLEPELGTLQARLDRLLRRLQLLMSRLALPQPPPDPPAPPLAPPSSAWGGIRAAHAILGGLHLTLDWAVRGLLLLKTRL

[2] = target: T2, murine IL-11 (mouse, UniProt P47873 22-199); test: cell-based or functional assay
T2 sequence: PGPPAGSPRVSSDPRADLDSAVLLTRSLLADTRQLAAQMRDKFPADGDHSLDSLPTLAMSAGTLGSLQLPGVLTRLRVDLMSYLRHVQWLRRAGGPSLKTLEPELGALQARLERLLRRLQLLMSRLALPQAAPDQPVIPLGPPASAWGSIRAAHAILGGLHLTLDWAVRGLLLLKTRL

[3] = target: T1, human IL-11; test: SPR, antibody captured, IL-11 as analyte
[4] = target: T2, murine IL-11; test: SPR, antibody captured, IL-11 as analyte
[5] = target: T3, cynomolgus IL-11 (cynomolgus, UniProt P20808 22-199); test: SPR, antibody captured, IL-11 as analyte
T3 construct: Invigate, lot #C290621-19; also called cIL11; cynoL-11
T3 sequence: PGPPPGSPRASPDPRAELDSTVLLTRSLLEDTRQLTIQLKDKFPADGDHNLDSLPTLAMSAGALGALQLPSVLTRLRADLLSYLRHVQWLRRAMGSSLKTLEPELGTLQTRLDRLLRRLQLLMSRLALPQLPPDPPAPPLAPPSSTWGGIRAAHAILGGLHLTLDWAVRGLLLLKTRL

[6] = target: T4, rat IL-11 (rat, UniProt Q99MF5 22-199); test: SPR, antibody captured, IL-11 as analyte
T4 construct: Invigate, e.g. lot #C301019-19; also called rIL11
T4 sequence: T2 sequence with S50N, L84F, G94A, V137A, I138V

[7] = target: T5, human IL-11 (human, UniProt P20809 22-199); test: cell-based or functional assay; remark: listed apart in the source
T5 sequence: T1 sequence

[8] = target: T6, murine IL-11 (mouse, UniProt P47873 22-199); test: cell-based or functional assay; remark: listed apart in the source
T6 sequence: T2 sequence

[9] = target: T5, human IL-11; test: cell-based or functional assay; remark: listed apart in the source
[10] = target: T6, murine IL-11; test: cell-based or functional assay; remark: listed apart in the source
[11] = target: T5, human IL-11; test: SPR, IgG captured via anti-human Fc, IL-11 as analyte
Method: (§1) Antibody binding affinity to hIL-11 (Invigate, Germany, e.g., lot #C121021-19) and mIL-11 (Invigate, Germany, e.g., lot #C210819-09) was detected using Biacore 8K. Each antibody was captured on an anti-human IgG Fc antibody immobilized CM5 sensor chip (GE). hIL-11 and mIL-11 at different concentrations (0, 5, 15.82 and 50 nM) in 1×HBS-EP+ (pH 7.4) (GE healthcare) were injected over the sensor chip at a flow rate of 30 μL/min for an association phase of 120 s, followed by 200 s dissociation phase. The chip was then regenerated by 10 mM Glycine, pH 1.5 after each binding cycle.
(§2) The sensorgrams of blank surface and buffer channel were subtracted from the test sensorgrams. The experimental data was fitted by 1:1 model using Langmiur analysis. Molecular weight of 19.3 kDa was used to calculate the molar concentration of human and mouse IL-11.
(§3) 16 AB were produced as described in Example 21 and binding of purified AB to human and mouse IL-11 was analyzed using SPR as described in Example 21.

[12] = target: T6, murine IL-11; test: as above
Method: as §1, §2, §3

B1: TPP-29391 (antibody, human IgG1, V domains shown)
VH: EVQLLESGGGLVQPGGSLRLSCAASGFTFSSYGMHWVRQAPGKGLEWVAVISYDGSYKYYADSVKGRFTISRDNSKNTLYLQMNSLRAEDTAVYYCAAGVPDYWGQGTLVTVSS
VL: QSVLTQPPSASGTPGQRVTISCSGSSSNIGSDYDVHWYQQLPGTAPKLLIYSNNERPSGVPDRFSGSKSGTSASLAISGLRSEDEADYYCAAWDSSLYGPVFGGGTKLTVL
RGA Efficacy (%) [1]: 84%
RGA IC50 [1]: 0.54 nM
RGA Efficacy (%) [2]: 96.9%
Kd [3]: 0.36 nM
Kd [4]: 0.17 nM
Kd [5]: 0.69 nM
Kd [6]: 0.071 nM

B4: TPP-29396 (antibody, human IgG1, V domains shown)
VH: B1 VH
VL: B1 VL with G30W, N54E, S95F
RGA Efficacy (%) [1]: 78.9%
RGA IC50 [1]: 0.65 nM
RGA Efficacy (%) [2]: 96.1%
RGA IC50 [2]: 0.39 nM
Kd [3]: 0.78 nM
Kd [4]: 0.7 nM
Kd [5]: 0.92 nM
Kd [6]: 0.44 nM

B6: TPP-29392 (antibody, human IgG1, V domains shown)
VH: B1 VH
VL: B1 VL with G30W, N54E, Y98S
RGA Efficacy (%) [1]: 80.2%
RGA IC50 [1]: 1.2 nM
RGA Efficacy (%) [2]: 89.3%
Kd [3]: 0.92 nM
Kd [4]: 1.1 nM
Kd [5]: 0.85 nM
Kd [6]: 0.95 nM

B9: TPP-29382 (antibody, human IgG1, V domains shown)
VH: B1 VH
VL: B1 VL with Y33L, S95F
RGA Efficacy (%) [1]: 81.4%
RGA IC50 [1]: 0.64 nM
RGA Efficacy (%) [2]: 87.5%
RGA IC50 [2]: 0.26 nM
Kd [3]: 0.44 nM
Kd [4]: 0.56 nM
Kd [5]: 0.46 nM
Kd [6]: 0.2 nM

B10: TPP-29397 (antibody, human IgG1, V domains shown)
VH: B1 VH
VL: B1 VL with G30W, D32G, N54E
RGA Efficacy (%) [1]: 71%
RGA IC50 [1]: 0.53 nM
RGA Efficacy (%) [2]: 93.8%
RGA IC50 [2]: 0.31 nM
Kd [3]: 0.35 nM
Kd [4]: 0.11 nM
Kd [5]: 0.8 nM
Kd [6]: 0.057 nM

B11: TPP-29393 (antibody, human IgG1, V domains shown)
VH: B1 VH
VL: B1 VL with Y33L, N54E, S95D
RGA Efficacy (%) [1]: 87.3%
RGA IC50 [1]: 0.61 nM
RGA Efficacy (%) [2]: 96.2%
RGA IC50 [2]: 0.24 nM
Kd [3]: 0.66 nM
Kd [4]: 0.39 nM
Kd [5]: 0.72 nM
Kd [6]: 0.18 nM

B13: TPP-31312 (antibody, IgG4, V domains shown)
VH: EVQLLESGGGLVQPGGSLRLSCAASGFTFSHYDMNWLRQAPGKGLEWVGVISYDGSNKFYADFVKGRFTISRDNSKNTLYLQMNSLRAEDTAVYYCARTPGSHFDYWGQGTLVTVSS
VL: QSVLTQPPSASGTPGQRVTISCSGSSSNIGNNAVNWYQQLPGTAPKLLIYYDDLLPSGVPDRFSGSKSGTSASLAISGLRSEDEADYYCSAWDDSLNGVVFGGGTKLTVL
notes: also called WT antibody; chimeric antibody
IC50, RGA 1 [7]: 163 nM and 171 nM
IC50, RGA 2 [7]: 80 nM
IC50, RGA 1 [8]: 31 nM and 75 nM
IC50, RGA 2 [8]: 20 nM
IC50, RGA [9]: 8.9 nM
IC50, RGA [10]: 9.8 nM
Kd [11]: 5.3 nM
Kd [12]: 9.3 nM

Next, values leading:

RGA Efficacy (%) [1]: 87.3%
RGA IC50 [1]: 0.84 nM
RGA Efficacy (%) [2]: 97.4%
RGA IC50 [2]: 0.29 nM
Kd [3]: 0.23 nM
Kd [4]: 0.12 nM
Kd [5]: 0.91 nM
Kd [6]: 0.083 nM
B2: TPP-29389 (antibody, human IgG1, V domains shown)
VH: B1 VH
VL: B1 VL with D32Y, N54E, S95P

RGA Efficacy (%) [1]: 75.3%
RGA IC50 [1]: 0.48 nM
RGA Efficacy (%) [2]: 94.8%
RGA IC50 [2]: 0.45 nM
Kd [3]: 0.62 nM
Kd [4]: 0.57 nM
Kd [5]: 0.43 nM
Kd [6]: 0.3 nM
B3: TPP-29381 (antibody, human IgG1, V domains shown)
VH: B1 VH
VL: B1 VL with A91S, Y98S

RGA Efficacy (%) [1]: 89.8%
RGA IC50 [1]: 1.7 nM
RGA Efficacy (%) [2]: 93.9%
RGA IC50 [2]: 0.48 nM
Kd [3]: 1.2 nM
Kd [4]: 0.65 nM
Kd [5]: 0.67 nM
Kd [6]: 0.37 nM
B5: TPP-29394 (antibody, human IgG1, V domains shown)
VH: B1 VH
VL: B1 VL with S95F

RGA Efficacy (%) [1]: 86%
RGA IC50 [1]: 1.6 nM
RGA Efficacy (%) [2]: 94.2%
RGA IC50 [2]: 0.57 nM
Kd [3]: 1.1 nM
Kd [4]: 0.62 nM
Kd [5]: 1.3 nM
Kd [6]: 0.31 nM
B7: TPP-29383 (antibody, human IgG1, V domains shown)
VH: B1 VH
VL: B1 VL with Y33L, N54E, S95P

RGA Efficacy (%) [1]: 70.2%
RGA IC50 [1]: 0.73 nM
RGA Efficacy (%) [2]: 90%
Kd [3]: 0.56 nM
Kd [4]: 0.93 nM
Kd [5]: 0.57 nM
Kd [6]: 0.53 nM
B8: TPP-29399 (antibody, human IgG1, V domains shown)
VH: B1 VH
VL: B1 VL with Y98S

RGA Efficacy (%) [1]: 81.9%
RGA IC50 [1]: 2.8 nM
RGA Efficacy (%) [2]: 97.2%
RGA IC50 [2]: 0.33 nM
Kd [3]: 0.98 nM
Kd [4]: 0.3 nM
Kd [5]: 0.86 nM
Kd [6]: 0.18 nM
B12: TPP-29384 (antibody, human IgG1, V domains shown)
VH: B1 VH
VL: B1 VL with D32G, N54E, S95P, Y98S

IC50, RGA [9]: 1.2 nM
IC50, RGA [10]: 0.6 nM
Kd [11]: 0.59 nM
Kd [12]: 0.35 nM
B14: TPP-31325 (antibody, human IgG4 S228P, lambda, V domains shown)
VH: B13 VH with E1Q, L5V, L11V, G16R, N35H, L37V, G49A, D54E, F63S
VL: QSVLTQPPSASGTPGQRVTISCSGSSSNIGSNYVNWYQQLPGTAPKLLIYYDDLRPSGVPDRFSGSKSGTSASLAISGLRSEDEADYYCSAWDDSLSGVVFGGGTKLTVLG
notes: hIgG4-SPLE, Lambda; also called final germline; FB with a back-mutation VL-A90S

IC50, RGA [9]: 3.1 nM
IC50, RGA [10]: 2.1 nM
Kd [11]: 1 nM
Kd [12]: 0.85 nM
B15: TPP-31327 (antibody, IgG4, V domains shown)
VH: B13 VH with E1Q, L5V, L11V, G16R, N35H, L37V, G49A, D54E, F63S
VL: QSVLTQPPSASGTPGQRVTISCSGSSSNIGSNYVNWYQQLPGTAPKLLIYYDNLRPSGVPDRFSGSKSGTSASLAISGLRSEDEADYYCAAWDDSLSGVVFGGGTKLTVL
notes: hIgG4 SPLE, lambda; FB + 1, plus VL-D53N

IC50, RGA [9]: 7.9 nM
IC50, RGA [10]: 2.1 nM
Kd [11]: 1.8 nM
Kd [12]: 1.8 nM
B16: TPP-31328 (antibody, IgG4, V domains shown)
VH: B13 VH with E1Q, L5V, L11V, G16R, N35H, L37V, G49A, D54E, F59Y, F63S
VL: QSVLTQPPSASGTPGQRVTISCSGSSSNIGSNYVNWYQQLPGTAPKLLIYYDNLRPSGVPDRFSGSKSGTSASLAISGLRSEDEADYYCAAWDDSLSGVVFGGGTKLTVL
notes: hIgG4 SPLE, lambda; FB + 2, plus VH-F59Y & VL-D53N

IC50, RGA [9]: 2.9 nM
IC50, RGA [10]: 1 nM
Kd [11]: 0.79 nM
Kd [12]: 0.5 nM
B17: TPP-31324 (antibody, IgG4, V domains shown)
VH: B13 VH with E1Q, L5V, L11V, G16R, N35H, L37V, G49A, D54E, F63S
VL: B13 VL with N31S, A33Y, S90A, N97S
notes: hIgG4 SPLE, lambda; FB - 1, back mutation VL-R55L

IC50, RGA [9]: 3.6 nM
IC50, RGA [10]: 3.3 nM
Kd [11]: 1.7 nM
Kd [12]: 1.2 nM
B18: TPP-31326 (antibody, IgG4, V domains shown)
VH: B13 VH with E1Q, L5V, L11V, G16R, N35H, L37V, G49A, D54E, F59Y, F63S
VL: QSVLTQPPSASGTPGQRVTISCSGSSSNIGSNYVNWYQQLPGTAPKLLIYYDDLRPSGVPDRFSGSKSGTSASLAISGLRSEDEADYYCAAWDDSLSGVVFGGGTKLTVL
notes: hIgG4 SPLE, lambda; FB + 1, plus VH-F59Y
